Paper doi:10.1101/2024.03.13.584817 (bioRxiv, 2024)

Key:
[1] = biological target: dROS1 ECR construct 1-9 (126-2113) (Drosophila, UniProt P13368 126-2113); assay: SPR
[2] = biological target: T1, dROS1 ECR construct 1-4 (126-1298), His-tagged (Drosophila, UniProt P13368 126-1298); assay: SPR
T1 sequence (looked up): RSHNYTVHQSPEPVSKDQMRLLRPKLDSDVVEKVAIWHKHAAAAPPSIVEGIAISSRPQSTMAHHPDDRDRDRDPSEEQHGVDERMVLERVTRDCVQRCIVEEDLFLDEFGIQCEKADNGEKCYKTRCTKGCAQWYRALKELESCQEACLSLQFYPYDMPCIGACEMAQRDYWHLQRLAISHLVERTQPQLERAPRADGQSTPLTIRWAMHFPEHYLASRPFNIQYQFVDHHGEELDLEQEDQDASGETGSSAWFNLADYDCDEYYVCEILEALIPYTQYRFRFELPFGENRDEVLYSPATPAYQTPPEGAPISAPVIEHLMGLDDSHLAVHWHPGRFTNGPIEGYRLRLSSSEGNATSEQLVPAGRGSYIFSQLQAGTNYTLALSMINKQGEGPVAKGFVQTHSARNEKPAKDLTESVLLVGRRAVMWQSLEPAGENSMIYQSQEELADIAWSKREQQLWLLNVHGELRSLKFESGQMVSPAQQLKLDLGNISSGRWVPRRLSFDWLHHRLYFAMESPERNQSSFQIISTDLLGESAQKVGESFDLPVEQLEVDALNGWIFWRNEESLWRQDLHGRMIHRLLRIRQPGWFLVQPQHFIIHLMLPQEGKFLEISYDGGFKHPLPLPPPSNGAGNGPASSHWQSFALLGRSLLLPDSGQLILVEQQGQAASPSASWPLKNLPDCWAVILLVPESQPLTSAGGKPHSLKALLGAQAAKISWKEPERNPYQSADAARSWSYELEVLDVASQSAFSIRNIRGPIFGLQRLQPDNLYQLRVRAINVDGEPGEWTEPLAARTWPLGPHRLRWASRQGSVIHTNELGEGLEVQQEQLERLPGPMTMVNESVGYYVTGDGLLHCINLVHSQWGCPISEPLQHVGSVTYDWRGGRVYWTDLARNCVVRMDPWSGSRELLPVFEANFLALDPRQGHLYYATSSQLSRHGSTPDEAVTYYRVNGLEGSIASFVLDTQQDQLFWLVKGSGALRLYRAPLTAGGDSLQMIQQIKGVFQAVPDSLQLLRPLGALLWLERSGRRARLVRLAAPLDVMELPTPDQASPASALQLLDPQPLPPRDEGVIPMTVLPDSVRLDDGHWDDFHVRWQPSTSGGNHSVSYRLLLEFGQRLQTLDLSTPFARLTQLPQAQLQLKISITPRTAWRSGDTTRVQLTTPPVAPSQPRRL

B1: BOSS ECR (102-510), His-tag cleaved (domain or fragment, Drosophila, UniProt P22815 102-510, looked up)
chain: GTTASLVPEICLNGLQLTVNSADEGTVIRKQEEFVKILEGDVVLSVLTKDPDSALFVINRVNQANLIMADFEIGIRAISIDNASLAENLLIQEVQFLQQCTTYSMGIFVDWELYKQLESVIKDLEYNIWPIPGTRAHLFPKVAHLLHQMPWGEKIASVEIATETLEMYNEFMEAARQEHMCLMHFKSDDNVYIMFGNKLASHFKENGTLFSVPTDRTDDEFLADLPNRAFVLMENEIDLSTAVELDATPTALDEILIGKSVLPSRVLSFAGSIIDLMNWLRGSLSKHCKRGEEHDLYVLESCFNFLNFIEDWRTSEYRQAHDTAEILSLLLMRKLGTAMNFQMYQKKVLTLDKITGESRTELREIASQNFVTNVTTYYHYNRDNHTSLELKTKFGQVFNCQYSAGDNRR
B1 was tested, and the Kd [1] was 4.4 µM and the Kd [2] was 3 to 5 µM.
